PMC4338599

What was measured:
Experiment in all cases: SPR
[1] = molecular target: Ku70-Ku80 heterodimer (Ku);PAXX V199A/F201A V199A;F201A (human?;human) (UniProt P12956+P13010+Q9BUH6)
[2] = molecular target: Ku70-Ku80 heterodimer (Ku);PAXX WT (PAXX1-204, C9orf142) (human?;human) (UniProt P12956+P13010+Q9BUH6)
[3] = molecular target: Ku70-Ku80 heterodimer (Ku) (UniProt P12956+P13010)
Sequence of Ku70-Ku80 heterodimer (Ku) (P12956 whole entry, chain 1 of 2): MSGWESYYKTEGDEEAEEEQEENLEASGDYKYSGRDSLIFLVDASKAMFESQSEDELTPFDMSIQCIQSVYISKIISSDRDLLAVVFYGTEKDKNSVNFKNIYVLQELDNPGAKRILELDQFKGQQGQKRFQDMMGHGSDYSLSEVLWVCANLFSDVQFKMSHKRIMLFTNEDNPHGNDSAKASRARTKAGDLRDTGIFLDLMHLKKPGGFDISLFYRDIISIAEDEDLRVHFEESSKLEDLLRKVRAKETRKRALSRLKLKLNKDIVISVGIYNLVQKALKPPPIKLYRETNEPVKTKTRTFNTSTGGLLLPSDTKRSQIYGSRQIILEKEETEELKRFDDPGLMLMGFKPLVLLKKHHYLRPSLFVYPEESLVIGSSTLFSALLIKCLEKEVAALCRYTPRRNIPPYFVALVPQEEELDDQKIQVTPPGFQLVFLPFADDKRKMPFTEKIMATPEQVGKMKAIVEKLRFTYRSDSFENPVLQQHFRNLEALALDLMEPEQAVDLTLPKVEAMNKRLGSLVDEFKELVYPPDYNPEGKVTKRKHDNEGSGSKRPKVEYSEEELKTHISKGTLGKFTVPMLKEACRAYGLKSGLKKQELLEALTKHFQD
Sequence of Ku70-Ku80 heterodimer (Ku) (P13010 whole entry, chain 2 of 2): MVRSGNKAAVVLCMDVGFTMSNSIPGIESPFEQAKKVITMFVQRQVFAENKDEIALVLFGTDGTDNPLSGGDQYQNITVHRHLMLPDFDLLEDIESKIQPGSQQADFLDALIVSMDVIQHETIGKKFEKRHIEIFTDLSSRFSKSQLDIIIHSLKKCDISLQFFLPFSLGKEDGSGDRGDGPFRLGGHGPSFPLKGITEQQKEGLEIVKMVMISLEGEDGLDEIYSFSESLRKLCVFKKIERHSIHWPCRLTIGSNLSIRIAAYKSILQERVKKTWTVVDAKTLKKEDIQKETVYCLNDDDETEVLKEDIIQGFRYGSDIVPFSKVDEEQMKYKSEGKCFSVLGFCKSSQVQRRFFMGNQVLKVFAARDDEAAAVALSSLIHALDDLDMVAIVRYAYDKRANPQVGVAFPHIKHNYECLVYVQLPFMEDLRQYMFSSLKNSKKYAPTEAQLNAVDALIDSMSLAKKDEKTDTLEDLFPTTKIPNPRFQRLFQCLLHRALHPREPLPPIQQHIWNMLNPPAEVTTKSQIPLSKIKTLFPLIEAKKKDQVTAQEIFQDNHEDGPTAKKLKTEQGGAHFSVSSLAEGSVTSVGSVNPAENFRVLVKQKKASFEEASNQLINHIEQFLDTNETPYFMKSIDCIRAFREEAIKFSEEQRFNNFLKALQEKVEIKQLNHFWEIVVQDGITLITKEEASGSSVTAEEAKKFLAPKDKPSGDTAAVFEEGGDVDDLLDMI

Sequence of Ku70-Ku80 heterodimer (Ku);PAXX V199A/F201A V199A;F201A (human?;human) (P12956 whole entry, chain 1 of 3): as the sequence (P12956 whole entry, chain 1 of 2) above
Sequence of Ku70-Ku80 heterodimer (Ku);PAXX V199A/F201A V199A;F201A (human?;human) (P13010 whole entry, chain 2 of 3): as the sequence (P13010 whole entry, chain 2 of 2) above
Sequence of Ku70-Ku80 heterodimer (Ku);PAXX V199A/F201A V199A;F201A (human?;human) (Q9BUH6 whole entry V199A/F201A, chain 3 of 3): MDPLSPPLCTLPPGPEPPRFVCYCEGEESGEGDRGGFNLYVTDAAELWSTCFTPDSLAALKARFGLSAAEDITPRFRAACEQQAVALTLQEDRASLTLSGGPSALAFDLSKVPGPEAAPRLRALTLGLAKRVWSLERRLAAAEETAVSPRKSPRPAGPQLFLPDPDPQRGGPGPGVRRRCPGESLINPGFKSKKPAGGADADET
Sequence of Ku70-Ku80 heterodimer (Ku);PAXX WT (PAXX1-204, C9orf142) (human?;human) (P12956 whole entry, chain 1 of 3): as the sequence (P12956 whole entry, chain 1 of 2) above
Sequence of Ku70-Ku80 heterodimer (Ku);PAXX WT (PAXX1-204, C9orf142) (human?;human) (P13010 whole entry, chain 2 of 3): as the sequence (P13010 whole entry, chain 2 of 2) above
Sequence of Ku70-Ku80 heterodimer (Ku);PAXX WT (PAXX1-204, C9orf142) (human?;human) (Q9BUH6 whole entry, chain 3 of 3): as the sequence (Q9BUH6 whole entry V199A/F201A, chain 3 of 3) above, with A199V, A201F counted along it

Q: “ATATATCCATGGCTGCCTCACAAACTTCACAAACTGTTGCATCTCACGTTCCTTTTGCAGATTTGTGTTCAACTTTAGAACGAATACAGAAAAGTAAAGGACGTGCA (double strand) [107-bp biotinylated LIG4 PCR fragment]” was tested. Which binding [1] did it give?
A: Its binding is “no binding”.

Q: What about the binding [2] of the same sequence?
A: Its binding is “binds”.

Q: And the binding [3]?
A: The binding was “binds”.
